In paper PMC10083269, “Basic characterization of antibodies targeting receptors of the tumor necrosis factor receptor superfamily” (Frontiers in Immunology, 2023):

Legend:
[1] = target: T1, CD40 on HT1080-CD40 cells (Homo sapiens, UniProt P25942); test: cellular equilibrium binding of a GpL (luciferase) fusion protein; adherent HT1080-CD40 cells in 96-well plates (2 x 10^4 cells/well), two-fold dilution series of the GpL antibody fusion protein, 37°C, 30 min to 1 h, five washes with icecold PBS, cell-associated luminescence; non-specific binding from HT1080 cells, from cells blocked with an excess of the GpL-free antibody, or from an irrelevant IgG1-LC:GpL; one …; conditions: partners not purified
T1 construct: CD40 expressed on HT1080-CD40 transfectants; also called CD40-expressing cells
T1 sequence (P25942 21-277): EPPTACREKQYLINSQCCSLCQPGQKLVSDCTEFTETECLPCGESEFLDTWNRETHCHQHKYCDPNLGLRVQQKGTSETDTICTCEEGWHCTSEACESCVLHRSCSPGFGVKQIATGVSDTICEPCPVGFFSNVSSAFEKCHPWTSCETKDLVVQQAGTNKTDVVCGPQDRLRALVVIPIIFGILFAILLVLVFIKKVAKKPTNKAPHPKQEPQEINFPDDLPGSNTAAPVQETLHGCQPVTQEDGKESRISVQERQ

CD40(ed)-Fc = target: T2, CD40(ed)-Fc (Homo sapiens, UniProt P25942); test: cell-free equilibrium binding of a GpL (luciferase) fusion protein on coated plates; black high binding 96-well plates coated with 1 µg/ml CD40(ed)-Fc in 0,1 M carbonate buffer at 4°C overnight, blocked with 10% FCS in PBS, two-fold dilution series of the GpL antibody fusion protein, 37°C, 1 h; non-specific binding from irrTNFR(ed)-Fc wells, from wells blocked with an excess of the GpL-free antibody, or from an …; conditions: one partner purified
T2 construct: extracellular domain of CD40; coated directly on the plate; the legend's footnote says that purified TNFR(ed)-Fc can be coated directly, so it was probably purified; also called Fc fusion protein of the extracellular CD40 domain; source: HEK293T, transient transfection (said of the recombinant proteins in general)
T2 sequence (P25942 21-193): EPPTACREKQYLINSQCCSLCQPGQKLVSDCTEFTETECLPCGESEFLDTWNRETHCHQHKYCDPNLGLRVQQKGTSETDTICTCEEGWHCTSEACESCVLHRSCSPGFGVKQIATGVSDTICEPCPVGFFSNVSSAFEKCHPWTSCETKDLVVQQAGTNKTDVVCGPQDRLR

TNFR2(ed)-CRD1-4-GpL = target: T3, TNFR2(ed)-CRD1-4-GpL (Homo sapiens, point mutant); test: cell-free binding of GpL-tagged receptor fragments to plate-captured antibody; plates coated with 1 µg/ml protein G, antibody (1 µg/ml) captured 1 h at 37°C, 500 ng/ml TNFR2-GpL fusion proteins added in medium for 2 h at 37°C, well-associated luminescence; irrelevant IgG1 wells subtracted; conditions: partners not purified
T3 construct: TNFR2, CRD1-CRD4 of the ectodomain (stalk region lacking); also called GpL-tagged deletion mutant of the TNFR2 ectodomain lacking the stalk region; source: HEK293T, transient transfection (PEI); not shown: GpL (Gaussia princeps luciferase), C-terminal, kept
T3 chain: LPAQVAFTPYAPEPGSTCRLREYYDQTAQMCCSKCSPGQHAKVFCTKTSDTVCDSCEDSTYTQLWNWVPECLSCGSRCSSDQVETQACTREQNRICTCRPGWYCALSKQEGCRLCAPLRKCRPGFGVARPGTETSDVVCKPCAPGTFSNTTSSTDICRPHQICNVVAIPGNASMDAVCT

TNFR2(ed)-CRD1-3-GpL = target: T4, TNFR2(ed)-CRD1-3-GpL (Homo sapiens, point mutant); test: as above; conditions: partners not purified
T4 construct: TNFR2, CRD1-CRD3 of the ectodomain; also called GpL-tagged deletion mutant of the TNFR2 ectodomain lacking the stalk region + CRD4; source: HEK293T, transient transfection (PEI); not shown: GpL (Gaussia princeps luciferase), C-terminal, kept
T4 chain: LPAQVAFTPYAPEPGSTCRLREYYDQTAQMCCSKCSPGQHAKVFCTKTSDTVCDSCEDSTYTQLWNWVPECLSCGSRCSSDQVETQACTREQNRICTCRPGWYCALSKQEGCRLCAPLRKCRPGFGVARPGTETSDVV

TNFR2(ed)-CRD1-2-GpL = target: T5, TNFR2(ed)-CRD1-2-GpL (Homo sapiens, point mutant); test: as above; conditions: partners not purified
T5 construct: TNFR2, CRD1-CRD2 of the ectodomain; also called GpL-tagged deletion mutant of the TNFR2 ectodomain lacking the stalk region + CRDs 3 and 4; source: HEK293T, transient transfection (PEI); not shown: GpL (Gaussia princeps luciferase), C-terminal, kept
T5 chain: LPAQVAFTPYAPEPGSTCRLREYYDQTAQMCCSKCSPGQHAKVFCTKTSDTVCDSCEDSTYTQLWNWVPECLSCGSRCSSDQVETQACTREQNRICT

TNFR2(ed)-CRD1-GpL = target: T6, TNFR2(ed)-CRD1-GpL (Homo sapiens, point mutant); test: as above; conditions: partners not purified
T6 construct: TNFR2, CRD1 of the ectodomain; also called GpL fusion protein of the TNFR2 CRD1 alone; source: HEK293T, transient transfection (PEI); not shown: GpL (Gaussia princeps luciferase), C-terminal, kept
T6 chain: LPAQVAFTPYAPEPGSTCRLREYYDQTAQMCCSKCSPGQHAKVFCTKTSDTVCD

[2] = target: T1, CD40 on HT1080-CD40 cells; test: cellular competition binding with a GpL-TNFL fusion protein; HT1080 transfectants (2 x 10^4 per well) incubated with an excess of the GpL-free antibody (10 µg/ml) or VHH Fc fusion protein for 30 minutes, then GpL-TNFL added at a concentration close to its KD (typically 1 - 100 ng/ml); remaining specific binding against TNFR negative HT1080 cells; conditions: partners not purified

B1: anti-CD40(G28.5)-IgG1-LC : GpL (antibody, V domains shown)
VH: DIQLQQSGPGLVKPSQSLSLTCSVTGYSITTNYNWNWIRQFPGNKLEWMGYIRYDGTSEYTPSLKNRVSITRDTSMNQFFLRLTSVTPEDTATYYCARLDYWGQGTLVTVSS
VL: DIVMTQNPLSLPVSLGDEASISCRSSQSLENSNGNTFLNWFFQKPGQSPQLLIYRVSNRFSGVPDRFSGSGSGTDFTLKISRVEAEDLGVYFCLQVTHVPYTFGGGTTLEIK
notes: heavy chain of recombinant anti-CD40 IgG1 clone G28.5; light chain of recombinant anti-CD40 IgG1 clone G28.5; IgG1; GpL domain on the C-terminus of the light chain; also called GpL-Ab-Fp of the CD40-specific antibody G28.5; source: HEK293T, transient transfection (PEI), cell culture supernatant; not shown: GpL (Gaussia princeps luciferase), C-terminal, kept
B1: binds [1]; binds (CD40(ed)-Fc).

B2: anti-CD40(G28.5)-IgG1 (antibody, V domains shown)
VH: B1 VH
VL: B1 VL
notes: as the heavy chain of m1; as the light chain of m1, without the GpL domain; IgG1; also called GpL-free version of G28.5; source: HEK293T, transient transfection (PEI)
B2: binds [1]; binds (CD40(ed)-Fc).

B3: anti-TNFR2(68/69)-IgG1(N297A) (antibody, V domains shown)
VH: QVTLKESGPALVKPTQTLTLTCTFSGFSLSTSGMGVGWIRQPPGKALEWLAHIWWDDDKFYNPSLKSRLTISKDTSKNQVVLTMTNMDPVDTATYYCARLTGTRYFDYWGQGTTVTVSS
VL: DVQMTQSPSSLSASVGDRVTITCKASQDINKFIAWYQQKPGKAPKLLIHYTSTLQPGIPSRFSGSGSGRDYTFTISSLQPEDIATYYCLQYGNLWTFGGGTKVEIK
notes: heavy chain of recombinant anti-TNFR2 IgG1(N297A) clone SBT-002 (68/69); light chain of recombinant anti-TNFR2 clone SBT-002 (68/69); IgG1 with N297A in the Fc; also called SBT-002; anti-TNFR2 antibody 68/69; source: HEK293T, transient transfection (PEI)
B3: binds (TNFR2(ed)-CRD1-4-GpL); binds (TNFR2(ed)-CRD1-3-GpL); binds (TNFR2(ed)-CRD1-2-GpL). B3: no binding (tested: 500 ng/ml) (TNFR2(ed)-CRD1-GpL).

B4: Anti-CD40(ADC)-IgG1 (antibody, V domains shown)
VH: EVQLLESGGGLVQPGGSLRLSCAASGFTFSTYGMHWVRQAPGKGLEWLSYISGGSSYIFYADSVRGRFTISRDNSENALYLQMNSLRAEDTAVYYCARILRGGSGMDLWGQGTLVTVSS
VL: QSVLTQPPSASGTPGQRVTISCTGSSSNIGAGYNVYWYQQLPGTAPKLLIYGNINRPSGVPDRFSGSKSGTSASLAISGLRSEDEADYYCAAWDKSISGLVFGGGTKLTVL
notes: heavy chain of recombinant anti-CD40 IgG1 clone ADC1013; light chain of recombinant anti-CD40 IgG1 clone ADC1013; IgG1; also called ADC1013; variant of the anti-CD40 antibody ADC-1013; source: HEK293T, transient transfection (PEI)
B4: binds [2].
